From a protein production outcome set (Wang et al. 2014)

Assay: label from the status in PepcDB records

| Sequence | protein production |
| --- | --- |
| MIETTKGGSGSYPIKTIVVLVQENRSFDHTLGWFKELNREIDGVTKSDPKSNTVSSSDTNSLRVVFGDQSQYVNPDPGHSIQDIYEQVFGKPWDSGKPDPNPGHPNMSGFAQNAERNKKGMSSAVMNGFKPNALPVYKELVQNFAICDRWFASVPASTQPNRLYVHSATSHGATSNDKKLLLEGFPQKTIFESLDEAGFSFGIYYQFPPSTLFYRNLRKLKYLTHFHQYGIQFKKDCKEGKLPNYVVVEQRWFDLLSTPANDDHPSHDVSEGQKLVKEVYEALRSSPQWNEILFIITYDEHGGFYDHVPTPVDGVPNPDGILGPPPYNFEFNRLGVRVPTFFISPWIEPGTVIHGPNGPYPRSQYEHSSIPATVKTIFKLKDFLSKRDSWAGTFESVITRDSPRQDCPETLSTPIKLRGTMAKENAQLSEFQEDLVIMAAGLKGDYKNEELIHKLCKETCVADASKYVTNAFEKFLEESRKARDRGCDENDIVYCVDDDDDHVVIPPQSHSEASNAAAQPKTQTSFFNKLFSCFIRHD | failed |
| MAYFHGTGSEPAWKQMELVALIGLAAVLLRGPIAAAWKTVASRSNERKRHQRDPAARVGKGAGSKINLAALQYANLKLALREHRCRRLPRLLVTGNDAAVSRLLPELEEAGWFDTCDALLLSSKTSNEGQPDTAWLKRLYKLRRRRPVDAVIVVTDGAADLPMPRRGTHPYSIRLARIIEILRYAAPVYVVDVAGMDPTVSSDAPIIVCALPNQADASAIEEALLLLRNQLARRGLDQLTQEDRYPYQARLSQRFDTRSKALAKWTAGLIAGQIAVRGIAFAPYPSGTSTKPEMPGSADLPHWRYLSEAARRQPGKRIGWHPMTVCVGFALVAVGLWFAGMLASGWFNSRDVYAAQQAVTEIGSARNPATRLHALLALQQQIERYEYRTQQHAPLLTRFGLNRDADVLAALWQPYVKASRELLVTPVQQNLEATLVDLGQLQTTTLDDKTSQWALSGRDDLKAYLMLAYPERTEADFLAGRLPHDWSTEARITPGEKQALAERLFKFYAQHLKANPDWKIEPRPELVAGARQTLLAVIGARSAQETLYRGILNGAGNKYPDLTLPSLTAGTDARGLLRSAAAVPGVFTRQAYEGYVADAIDAAATRRDVAADWVLTGSQVAAVTATKSADELRAALTEQYFAEYAAHWQDFMNSLQWESAATLPAAIDQLKLLADARQSPAIALMKSLAYQGGAGVQKTSLSDTLVNKAKDILGKKDDAPNSAKAAPAGPLDAAFGPVLRLAGQPGQAGQGGNNDLSLQRYLDRITALRLRLQQVSIGADADDQARQMAQAMFQGKSSDLADTQAYAQLVAASLGAEWAGMGETLFVRPVAQATQAIVLPAQASLNDVWQRFIMAEWNRIFAGRYPFANTTNDASLPELAQFLRPQGGTIQTFLATQLAGVLELQGDQWMPAAGARGITFDPEFLKTINILQRIGAHMLVQGDPQYRFELKPIATPGLTDTKLTIDGQKLHYYNQRETWNRMTWPASNLQDPGTLLQWQTEKAGTNKNYEYGGRFALLRMIGHGHIVPIDSATVQITWPAVPDTRGPLEESTDAQSGKAPYEIRFLMRSEAGQGVLELLPLRGLKLPQRVFLVGKGGAAVDVPSPAARNAKRGGV | failed |
| MPTLQLFIYIIGFLFLMYMAWSLWTEKPSNIEEIEPMSAKKQILFALSVSLLNPHAIMDTVGVIGTSASVYDGYDKVVFSLATISVSWIWFVFLAILGRITGKIDKSGKYIVILNKVSSVIVIIVGLIILKNIVGILS | failed |
| MADKQPAVNRVVAALLVGGALIAAGYAIRHTVSCFLLSFVTAYLLDPVLVVMERRGVRRPWGILFLYALLAVFSVFFFIVLVPFLSLRWEAFITGLPAYLQKGKQIVFAWKSRAVPPYAVEEWRWLFDTAAGQADKLLAKLGAGVYAAAEGLVFNLFNLVLAPILVFFMLWYKKEFMETAAAWLPASRREVLLALGREVNESIGGYIRGQFMVSVIVAVLSTVALFVIGIDYPIVNGIFAGLASVLPFIGVILATLPPLFFAYVQYESGMVLLQVIGAFSVIYFLEGYLVKPLVFKESMDLNPLVTIIVVMVFGELMGFWGILLAIPIAAAVRAAADHLRRGDFRS | failed |
| MCRYCLIVAARVGAVDDARFDMTAPDLIPIETLFGMPEFSRAQISPDGRLVAYLAPWRGRLNIWVRPVGQGTARRLTGDDTRNIDGFSWTRDTRYLLFIQDTQGDENWHLHRVEVDGAEAVGGKARTVDLTPYSGVRVMGLELSAAFPSKAFVQMNLRTPDLIDLYEVDIESAETRVAALNPGRFVRWIVTPNGPMHAFIINDVGDHELARYENGVFTTLAKLSGRDQPIGPMPLMVAADGESVLVGCNAGSDHTYLAAIDLATGKCRVIDSQPDCSLDTPRPEADPRFPSSLITNPVTGELLAVRYLGKRQQIRPLNLRFAAVLNSLQRLSDGEIGYISCDAGGRQWVAEFWDDRHPGTTWFYEHESGEAHVLGERFSALSAERLVSVRPIDVISRDGLTLPCHVTLPVGFDAKDEPRALPTVLLVHGGPWYRDACVYDPEVQFLANRGYAVLQVNFRGSTGYGKAFMQAAIGEFSGRMHDDLIDGLDWLIGQGIADPARVAIYGCSYGGYAALVGASFTPERFTATISYSGISDLRMLVNGVVPFVQPTLINTYLSYMGDPDIETQNRDMLARSPVSRLDCISKPLLVVHGANDVRVAKAQADMVVERVRANGVEVDYLLNEREGHWFINEDSNIELYRKIERFLARHLRGE | failed |
| GLEVTVWNRSAAACEPLVALGAARAEEVGELFGLDVVISMLADDQAIRGVLLDSGALERARPGLIHLSMSTLSLDCVEALDQAHQRQGLAFVAAPVFGRTDVAEAGKLNIVVGGPEEAIEQVKALLEIMGQKTWFFGKDPRGAMAVKISGNFMIASAIESMGESVALVKRLGVEPGRFMELMSSTLFDAPVYRNYGPQIVEQRFTPARFRLVLGLKDVDLALSAGKRHNVPLPLASLLHDVLLEAIAHGDGESDWTALAKVALSRSGQI | failed |
| MKTIRSIGRFAVLAAMAALFAGCAGQQVKSEQRFFWPPLPERPRIEWLNAYSSQNDFPKSATEKFLTTIIGEEEGISLSKPITVRSDGRGKVYVGDPGAPGVYVFDFVNNIMRPFGKAEAEARIEQPVGIAIDENGRIYVSDTKKAAIMVFHQDETPAALINLKGMVEKIGDIAYDRIGKHLLALDVRGHKVLVLSLRGELLSSFGNRGTKPGEFNFPSALTVNNKGEIIVADAMNARIQIFSSDGKFLRMFGQRGDSPGTLQLIKGVAVDSDDNIYVTDGKGHKFEIFSTTGDYLLTVGGAFSALTTGKTAPGGFVIPQGIDIDKDNMIYVVDQLNRRFQVFRYISDSYLKANPIPGYTPSP | failed |
| PQKIFTPSAEIVKYTKIIAMEKLYAVFTDYEHDKVSRDEAVNKIRLDTEEHLKEKFPEVDQFEIIESFNIVAKEVFRSIILNEYKRCDGRD | not failed |
| TQKKVEVETLEQKIIRADRELAELLEIDEGDEVNYRVVYLRANGEIYAKAISFTPLKRLENSFREDLMRADIPIGKIMRKHNIEARREIRWSRVEEADLALAKELGIADRRVISRNYNIIHRGKVLINITEFFPMERFR | failed |
| MSKIFNEELAVIEAAAIAYLTAFNRADIPAVIATYTDDGVLMGPGRPAAVGKDELAEVYLSVFETVGFDMAYEIKEVVQTSADWAFVRSATEGTETNKATGVVTPAAYQELFLLRKSATGSWQTARYCTSKISP | not failed |
| MKLKTFLIVGCLGGLFTLSSCTAPTNVKDYSAYVNPFIGTGGHGHTFPGAVVPHGMIQPSPDTRIDGWDACSGYYYADSTINGFSHTHVSGTGCCDYGDVLLMPTVGKQQYRTTDPQSQRLAYASSFSHKNEIAEPGYYSVFLDTYQVKAEISSTKRGAIHRYTFPENTESGFIIDLDYSLQRQTNSEMEIEVISDTEICGHKKTTYWAFDQYINFYAKFSKPFSYTLVTDSITMDNGKRLPVCKALLHFNTSKDEQVLVKVGVSAVDIAGARKNVESEIPGWDFEKVRKDARTAWNEYLSKIDITTSDKEDKAIFYTALYHTGISPNLFTDADGRYLGMDLEVHQGDTLNPIYTVFSLWDTFRALHPLMTIIDPDLNNHFINSLIKKHQEGGIYPMWDLASNYTGTMIGYHAVPVIVDAYMKGYRNFDTKEAYKACLRAAEYDTTGIKCPDLVLPHLMPKAKYYKNAIGYIPCDRENESVAKALEYAYDDWCISIFAEAMSDFESKAKYERFAKAYEFYFDKSIRFMRGLDSKGEWRTPFNPRASTHRSDDYCEGTAWQWTWFVPHDVEGLVNLMGGEDAFVQKLDSLFSADSSLEGETTSSDISGLIGQYAHGNEPSHHVIHLYNYVNHPWRTQELVDSVYRSQYANSIEGLSGNEDCGQMSAWYILNSMGFYQVCPGKPVYSIGRPAFDKAVINLPEGKTFSIVVKNNGKKNKYIESVLLNGKALNIPFFNHQDIANGGTMEIKMTDHPTKWGVLSPALSSKEEE | failed |
